We go through 7 molecules from patent publication US20220387487A1, “COMPOSITIONS AND METHODS FOR TREATMENT OF CANCER” (Aleta Biotherapeutics Inc., priority 2019, published 2022).

B1: H243T: CD19 variant (protein)
chain: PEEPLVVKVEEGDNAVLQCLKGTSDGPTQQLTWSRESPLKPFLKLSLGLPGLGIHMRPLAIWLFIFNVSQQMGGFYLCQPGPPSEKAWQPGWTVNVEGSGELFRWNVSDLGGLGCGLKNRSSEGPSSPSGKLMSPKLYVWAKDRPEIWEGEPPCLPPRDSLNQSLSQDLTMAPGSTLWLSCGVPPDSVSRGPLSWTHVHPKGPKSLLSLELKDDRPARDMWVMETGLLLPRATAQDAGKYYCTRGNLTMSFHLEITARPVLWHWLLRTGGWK
B2: W262G: CD19 variant (protein)
chain: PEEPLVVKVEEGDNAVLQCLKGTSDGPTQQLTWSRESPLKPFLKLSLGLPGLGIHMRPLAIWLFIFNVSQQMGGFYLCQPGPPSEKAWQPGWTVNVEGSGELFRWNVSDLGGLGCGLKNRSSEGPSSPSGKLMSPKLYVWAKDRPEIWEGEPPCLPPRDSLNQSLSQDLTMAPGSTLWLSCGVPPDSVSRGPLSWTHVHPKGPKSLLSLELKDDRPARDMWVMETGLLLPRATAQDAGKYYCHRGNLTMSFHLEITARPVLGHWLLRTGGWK
B3: A232V: CD19 variant (protein)
chain: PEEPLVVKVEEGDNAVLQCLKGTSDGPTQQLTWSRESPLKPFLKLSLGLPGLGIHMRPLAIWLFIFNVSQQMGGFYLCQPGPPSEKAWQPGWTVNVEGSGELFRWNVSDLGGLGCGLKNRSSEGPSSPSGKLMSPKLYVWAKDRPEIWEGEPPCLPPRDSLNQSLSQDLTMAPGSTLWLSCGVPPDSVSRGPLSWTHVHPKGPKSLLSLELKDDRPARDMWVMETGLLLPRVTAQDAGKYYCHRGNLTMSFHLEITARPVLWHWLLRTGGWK
B4: W262Q: CD19 variant (protein)
chain: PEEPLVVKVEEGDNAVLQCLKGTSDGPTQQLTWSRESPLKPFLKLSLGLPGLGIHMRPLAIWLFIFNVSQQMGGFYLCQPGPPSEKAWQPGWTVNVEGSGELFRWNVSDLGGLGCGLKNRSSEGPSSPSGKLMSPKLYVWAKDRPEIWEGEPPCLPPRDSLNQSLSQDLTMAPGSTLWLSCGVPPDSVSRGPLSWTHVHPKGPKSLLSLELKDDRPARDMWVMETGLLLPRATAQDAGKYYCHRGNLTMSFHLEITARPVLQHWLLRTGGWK
B5: Y240W: CD19 variant (protein)
chain: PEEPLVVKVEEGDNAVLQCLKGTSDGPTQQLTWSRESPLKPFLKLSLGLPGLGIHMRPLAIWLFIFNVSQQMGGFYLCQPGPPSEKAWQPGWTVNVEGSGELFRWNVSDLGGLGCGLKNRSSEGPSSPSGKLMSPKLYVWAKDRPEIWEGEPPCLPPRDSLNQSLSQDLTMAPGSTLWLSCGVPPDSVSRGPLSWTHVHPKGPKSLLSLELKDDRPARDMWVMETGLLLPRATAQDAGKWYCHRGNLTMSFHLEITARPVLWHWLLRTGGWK
B6: L59G: CD19 variant (protein)
chain: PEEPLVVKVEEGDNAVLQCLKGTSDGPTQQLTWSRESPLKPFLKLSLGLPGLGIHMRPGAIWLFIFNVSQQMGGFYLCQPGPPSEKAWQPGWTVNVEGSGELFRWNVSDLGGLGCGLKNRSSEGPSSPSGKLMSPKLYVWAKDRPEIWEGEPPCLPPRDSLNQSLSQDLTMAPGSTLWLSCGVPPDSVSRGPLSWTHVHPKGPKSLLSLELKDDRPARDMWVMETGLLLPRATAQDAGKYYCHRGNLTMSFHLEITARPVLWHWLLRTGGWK
B7: K212S: CD19 variant (protein)
chain: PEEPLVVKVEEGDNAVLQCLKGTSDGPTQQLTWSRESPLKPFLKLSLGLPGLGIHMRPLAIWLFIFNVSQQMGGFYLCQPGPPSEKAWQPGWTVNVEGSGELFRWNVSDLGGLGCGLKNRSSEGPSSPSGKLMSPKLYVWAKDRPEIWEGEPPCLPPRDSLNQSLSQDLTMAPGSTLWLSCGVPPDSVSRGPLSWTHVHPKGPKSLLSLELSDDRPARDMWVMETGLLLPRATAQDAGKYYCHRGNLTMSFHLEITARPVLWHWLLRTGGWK

Chain of FMC63 (as listed by the source): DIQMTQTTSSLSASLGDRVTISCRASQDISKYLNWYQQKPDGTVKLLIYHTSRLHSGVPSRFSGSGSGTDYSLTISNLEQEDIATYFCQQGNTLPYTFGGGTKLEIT
Chain of FMC63 (as listed by the source): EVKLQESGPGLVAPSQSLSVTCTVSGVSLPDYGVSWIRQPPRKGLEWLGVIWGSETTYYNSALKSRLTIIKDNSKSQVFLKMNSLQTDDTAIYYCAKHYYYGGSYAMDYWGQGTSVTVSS

The assay has as its system FMC63. The experiment in a line: CD19 variant binding to anti-CD19 antibody FMC63 (score). Conditions: Table 1A, CD19 single mutants (positions of SEQ ID NO:2).
On to B1, for which the “FMC63 Binding Score” value is recorded as 7.1 ± .9.

In the case of B2, the “FMC63 Binding Score” value is 6.4 ± .2.

On to B3, for which the “FMC63 Binding Score” value is given as 6.3 ± .2. Take B4: the “FMC63 Binding Score” value is 6.8 ± .6. As for B5, the “FMC63 Binding Score” value is listed as 6.3 ± .3. Next, B6: 6.5 ± .3; B7: 6.8 ± .6.
